Test results from patent US10213515B2, “Glycopeptide for contrast agent targeting cancer cells and contrast agent kit containing the same” (priority 2015, dated 2019).

System: HT-29 cells
Experiment: Cytotoxicity depending on the concentration of RR-S-Ac3ManNAz
Assay type: cell-based, human
Conditions: FIG. 4B

`CC(=O)N[C@@H](CCCCN)C(=O)NCC(=O)N[C@@H](CCCNC(=N)N)C(=O)N[C@@H](CCCNC(=N)N)C(=O)Nc1ccc(COC(=O)OC[C@H]2OC(OC(C)=O)[C@@H](NC(=O)CN=[N+]=[N-])[C@@H](OC(C)=O)[C@@H]2OC(C)=O)cc1` (stereo partly shown) [RR-S-Ac3ManNAz] was tested, and the “concentration up to which cytotoxicity was not observed” value was “up to 20 μM”.
